Measurements from article PMC8666675, “Structural basis of RNA polymerase recycling by the Swi2/Snf2 family of ATPase RapA in Escherichia coli” (The Journal of Biological Chemistry, 2021).

Key:
E. coli RNAP β′ subunit = molecular target: T1, E. coli RNAP β′ subunit (E. coli, UniProt P0A8T7 1-1407); assay: cryo-EM structure; EC-RapA: 4 μM RNAP core enzyme with DNA/RNA scaffold, then 5 μM RapA, 22 °C, storage buffer (10 mM Hepes pH 7.5, 50 mM NaCl, 0.1 mM EDTA, 5 mM DTT); gel filtration; 1 mM AMPPNP and CMPCPP; BS3 cross-linked; 3.3 Å; settings: both partners purified
T1 construct: RNA polymerase β′ subunit, E. coli; Stood in the assay as a subunit of the core enzyme m2, not alone; source: E. coli BL21(DE3), pVS10, purified as part of the RNAP core enzyme

E. coli RNAP β subunit = molecular target: T2, E. coli RNAP β subunit (E. coli, UniProt P0A8V2 1-1342); assay: as above; settings: both partners purified
T2 construct: RNA polymerase β subunit, E. coli; Stood in the assay as a subunit of the core enzyme m2, not alone; source: E. coli BL21(DE3), pVS10, purified as part of the RNAP core enzyme
T2 sequence (P0A8V2 whole entry): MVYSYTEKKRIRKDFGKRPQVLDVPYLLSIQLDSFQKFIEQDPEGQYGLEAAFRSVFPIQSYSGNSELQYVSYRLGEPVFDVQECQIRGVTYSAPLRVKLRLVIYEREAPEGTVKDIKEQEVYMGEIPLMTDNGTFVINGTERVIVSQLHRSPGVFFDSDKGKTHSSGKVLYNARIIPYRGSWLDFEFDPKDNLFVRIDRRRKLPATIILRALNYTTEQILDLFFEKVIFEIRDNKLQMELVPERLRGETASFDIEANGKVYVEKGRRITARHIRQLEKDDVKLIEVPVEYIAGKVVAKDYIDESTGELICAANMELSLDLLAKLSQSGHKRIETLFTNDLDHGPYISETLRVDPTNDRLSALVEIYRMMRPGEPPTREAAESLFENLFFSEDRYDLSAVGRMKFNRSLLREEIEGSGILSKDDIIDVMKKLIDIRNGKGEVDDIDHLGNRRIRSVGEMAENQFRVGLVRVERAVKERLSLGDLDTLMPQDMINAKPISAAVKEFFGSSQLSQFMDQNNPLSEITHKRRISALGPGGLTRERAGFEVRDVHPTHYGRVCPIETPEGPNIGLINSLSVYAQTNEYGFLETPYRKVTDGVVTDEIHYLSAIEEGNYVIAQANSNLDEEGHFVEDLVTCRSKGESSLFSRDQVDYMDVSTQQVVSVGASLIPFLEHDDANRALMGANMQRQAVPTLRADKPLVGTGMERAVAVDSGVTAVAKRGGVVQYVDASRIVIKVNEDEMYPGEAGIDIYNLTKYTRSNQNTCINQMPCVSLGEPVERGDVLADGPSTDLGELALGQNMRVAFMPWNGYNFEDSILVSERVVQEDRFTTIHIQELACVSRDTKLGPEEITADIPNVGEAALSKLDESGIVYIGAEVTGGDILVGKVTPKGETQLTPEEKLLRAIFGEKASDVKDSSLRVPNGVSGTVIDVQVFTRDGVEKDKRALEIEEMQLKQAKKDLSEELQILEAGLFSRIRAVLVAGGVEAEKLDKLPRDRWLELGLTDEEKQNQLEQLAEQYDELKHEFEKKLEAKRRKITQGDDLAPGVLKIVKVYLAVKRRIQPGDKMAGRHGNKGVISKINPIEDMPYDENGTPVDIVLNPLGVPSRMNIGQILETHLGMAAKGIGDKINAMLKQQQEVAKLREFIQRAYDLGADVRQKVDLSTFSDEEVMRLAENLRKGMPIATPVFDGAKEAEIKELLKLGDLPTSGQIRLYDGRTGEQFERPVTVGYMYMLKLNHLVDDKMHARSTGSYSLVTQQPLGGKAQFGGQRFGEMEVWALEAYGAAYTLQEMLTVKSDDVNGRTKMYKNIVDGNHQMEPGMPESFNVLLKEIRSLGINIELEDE

T1 sequence (P0A8T7 whole entry): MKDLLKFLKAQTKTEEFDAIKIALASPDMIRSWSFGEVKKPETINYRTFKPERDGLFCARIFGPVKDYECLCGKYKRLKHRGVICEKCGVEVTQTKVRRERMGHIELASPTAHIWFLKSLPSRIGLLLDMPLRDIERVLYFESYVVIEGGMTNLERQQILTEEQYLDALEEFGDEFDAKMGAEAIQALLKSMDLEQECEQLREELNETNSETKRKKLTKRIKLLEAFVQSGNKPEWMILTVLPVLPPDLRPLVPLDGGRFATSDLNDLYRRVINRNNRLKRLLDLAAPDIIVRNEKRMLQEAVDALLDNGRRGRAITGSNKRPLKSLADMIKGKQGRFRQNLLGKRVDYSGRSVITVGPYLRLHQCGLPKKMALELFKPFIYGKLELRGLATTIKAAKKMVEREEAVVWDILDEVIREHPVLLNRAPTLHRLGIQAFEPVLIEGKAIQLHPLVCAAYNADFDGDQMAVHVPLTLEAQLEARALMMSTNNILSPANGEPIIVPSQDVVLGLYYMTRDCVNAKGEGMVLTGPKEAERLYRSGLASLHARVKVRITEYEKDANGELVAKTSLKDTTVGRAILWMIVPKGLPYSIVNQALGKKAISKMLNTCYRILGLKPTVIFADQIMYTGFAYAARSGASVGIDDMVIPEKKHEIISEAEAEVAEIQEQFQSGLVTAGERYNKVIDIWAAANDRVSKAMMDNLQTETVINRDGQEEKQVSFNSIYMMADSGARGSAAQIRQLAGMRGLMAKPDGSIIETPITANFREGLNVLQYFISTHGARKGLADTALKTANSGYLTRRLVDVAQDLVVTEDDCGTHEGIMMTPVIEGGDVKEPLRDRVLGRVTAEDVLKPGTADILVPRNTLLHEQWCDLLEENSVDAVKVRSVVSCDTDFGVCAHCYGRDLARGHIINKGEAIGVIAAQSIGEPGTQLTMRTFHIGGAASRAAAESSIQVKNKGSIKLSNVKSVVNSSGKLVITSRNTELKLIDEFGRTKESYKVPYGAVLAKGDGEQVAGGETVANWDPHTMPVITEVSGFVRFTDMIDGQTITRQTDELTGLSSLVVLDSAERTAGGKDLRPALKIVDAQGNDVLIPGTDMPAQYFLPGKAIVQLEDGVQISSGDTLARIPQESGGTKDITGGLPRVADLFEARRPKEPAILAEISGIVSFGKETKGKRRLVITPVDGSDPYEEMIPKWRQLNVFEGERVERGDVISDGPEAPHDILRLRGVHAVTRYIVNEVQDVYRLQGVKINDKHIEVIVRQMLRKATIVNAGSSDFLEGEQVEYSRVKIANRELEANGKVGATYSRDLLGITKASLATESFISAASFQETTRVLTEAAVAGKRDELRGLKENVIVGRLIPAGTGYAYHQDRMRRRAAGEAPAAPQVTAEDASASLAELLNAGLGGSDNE

B1: E. coli RapA protein (enzyme, UniProt P60240 1-968, looked up)
chain: MPFTLGQRWISDTESELGLGTVVAVDARTVTLLFPSTGENRLYARSDSPVTRVMFNPGDTITSHDGWQMQVEEVKEENGLLTYIGTRLDTEESGVALREVFLDSKLVFSKPQDRLFAGQIDRMDRFALRYRARKYSSEQFRMPYSGLRGQRTSLIPHQLNIAHDVGRRHAPRVLLADEVGLGKTIEAGMILHQQLLSGAAERVLIIVPETLQHQWLVEMLRRFNLRFALFDDERYAEAQHDAYNPFDTEQLVICSLDFARRSKQRLEHLCEAEWDLLVVDEAHHLVWSEDAPSREYQAIEQLAEHVPGVLLLTATPEQLGMESHFARLRLLDPNRFHDFAQFVEEQKNYRPVADAVAMLLAGNKLSNDELNMLGEMIGEQDIEPLLQAANSDSEDAQSARQELVSMLMDRHGTSRVLFRNTRNGVKGFPKRELHTIKLPLPTQYQTAIKVSGIMGARKSAEDRARDMLYPERIYQEFEGDNATWWNFDPRVEWLMGYLTSHRSQKVLVICAKAATALQLEQVLREREGIRAAVFHEGMSIIERDRAAAWFAEEDTGAQVLLCSEIGSEGRNFQFASHMVMFDLPFNPDLLEQRIGRLDRIGQAHDIQIHVPYLEKTAQSVLVRWYHEGLDAFEHTCPTGRTIYDSVYNDLINYLASPDQTEGFDDLIKNCREQHEALKAQLEQGRDRLLEIHSNGGEKAQALAESIEEQDDDTNLIAFAMNLFDIIGINQDDRGDNMIVLTPSDHMLVPDFPGLSEDGITITFDREVALAREDAQFITWEHPLIRNGLDLILSGDTGSSTISLLKNKALPVGTLLVELIYVVEAQAPKQLQLNRFLPPTPVRMLLDKNGNNLAAQVEFETFNRQLNAVNRHTGSKLVNAVQQDVHAILQLGEAQIEKSARALIDAARNEADEKLSAELSRLEALRAVNPNIRDDELTAIESNRQQVMESLDQAGWRLDALRLIVVTHQ
notes: RapA, Swi2/Snf2 family ATPase of E. coli, full-length; NTD is residues 1-109; In the EC-RapA sample the complex was cross-linked with BS3; also called τ factor
**Q.** What does the source list for B1?
**A.** binding result (E. coli RNAP β′ subunit): binds; binding result (E. coli RNAP β subunit): binds
